Test results published in PMC6939906, “Leucine zipper transcription factor-like 1 binds adaptor protein complex-1 and 2 and participates in trafficking of transferrin receptor 1” (PLoS ONE, 2020).

T1: GST-β1 (glutathione S-transferase fused β1 subunit of AP-1) (human, UniProt Q10567 1-949)
T1 construct: cloned in pGEX-6P-1; also called GST-β1 (AP-1); GST-fused β1 subunit of AP-1; source: E. coli, purified (Glutathione Sepharose 4B)
T1 sequence (looked up): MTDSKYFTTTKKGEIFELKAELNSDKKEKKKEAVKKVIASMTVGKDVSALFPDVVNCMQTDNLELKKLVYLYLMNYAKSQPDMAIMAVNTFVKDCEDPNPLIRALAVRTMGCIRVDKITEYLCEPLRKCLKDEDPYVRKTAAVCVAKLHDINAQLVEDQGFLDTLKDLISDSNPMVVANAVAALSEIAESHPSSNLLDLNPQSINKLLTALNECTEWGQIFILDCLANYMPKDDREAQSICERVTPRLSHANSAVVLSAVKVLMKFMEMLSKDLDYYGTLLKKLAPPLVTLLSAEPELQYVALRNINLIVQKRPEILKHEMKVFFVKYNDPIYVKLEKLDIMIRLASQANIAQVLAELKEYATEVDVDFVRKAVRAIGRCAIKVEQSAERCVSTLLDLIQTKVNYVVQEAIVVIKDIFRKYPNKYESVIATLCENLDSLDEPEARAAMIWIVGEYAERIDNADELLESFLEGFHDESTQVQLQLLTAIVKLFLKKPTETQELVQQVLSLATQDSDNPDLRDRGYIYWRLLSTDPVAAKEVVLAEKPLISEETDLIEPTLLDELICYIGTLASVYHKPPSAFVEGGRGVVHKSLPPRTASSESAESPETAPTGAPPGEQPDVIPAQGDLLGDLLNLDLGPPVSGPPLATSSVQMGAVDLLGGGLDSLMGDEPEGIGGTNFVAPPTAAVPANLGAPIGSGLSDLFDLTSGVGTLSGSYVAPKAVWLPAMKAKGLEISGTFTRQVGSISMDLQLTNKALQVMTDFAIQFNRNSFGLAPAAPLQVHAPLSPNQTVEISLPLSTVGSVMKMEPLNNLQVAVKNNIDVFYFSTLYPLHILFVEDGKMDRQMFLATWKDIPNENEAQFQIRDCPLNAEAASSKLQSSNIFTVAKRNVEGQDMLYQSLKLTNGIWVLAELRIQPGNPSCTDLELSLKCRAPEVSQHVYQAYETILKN

T2: GST-β2 (GST-fused β2 subunit of AP-2) (human, UniProt P63010 1-937)
T2 construct: cloned in pGEX-6P-1; also called GST-β2 (AP-2); AP2B1; source: E. coli, purified (Glutathione Sepharose 4B)
T2 sequence (looked up): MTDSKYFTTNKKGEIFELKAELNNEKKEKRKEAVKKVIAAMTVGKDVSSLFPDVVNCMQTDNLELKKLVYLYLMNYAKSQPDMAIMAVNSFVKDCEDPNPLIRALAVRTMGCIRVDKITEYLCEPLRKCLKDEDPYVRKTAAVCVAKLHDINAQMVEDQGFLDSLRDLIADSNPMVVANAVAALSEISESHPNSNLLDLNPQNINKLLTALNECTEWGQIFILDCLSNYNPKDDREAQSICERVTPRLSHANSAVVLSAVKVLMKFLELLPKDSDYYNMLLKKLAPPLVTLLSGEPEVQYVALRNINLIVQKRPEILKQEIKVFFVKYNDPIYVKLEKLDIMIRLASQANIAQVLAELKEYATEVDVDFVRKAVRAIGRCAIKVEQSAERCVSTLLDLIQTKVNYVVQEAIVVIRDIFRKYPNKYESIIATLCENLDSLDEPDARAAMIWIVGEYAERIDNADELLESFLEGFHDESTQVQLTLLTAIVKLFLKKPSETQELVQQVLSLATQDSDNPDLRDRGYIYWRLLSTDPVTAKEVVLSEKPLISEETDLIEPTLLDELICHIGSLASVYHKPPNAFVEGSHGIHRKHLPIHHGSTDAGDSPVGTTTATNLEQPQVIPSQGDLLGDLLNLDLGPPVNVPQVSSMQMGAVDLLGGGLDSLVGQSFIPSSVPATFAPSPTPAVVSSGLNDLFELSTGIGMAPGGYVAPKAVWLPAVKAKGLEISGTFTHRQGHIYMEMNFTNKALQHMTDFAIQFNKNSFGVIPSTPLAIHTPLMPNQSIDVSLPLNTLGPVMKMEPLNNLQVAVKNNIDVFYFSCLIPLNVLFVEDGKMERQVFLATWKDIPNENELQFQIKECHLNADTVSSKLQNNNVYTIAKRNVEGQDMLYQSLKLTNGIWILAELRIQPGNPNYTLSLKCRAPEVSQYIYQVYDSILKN


Tests used:
Conditions in all cases: both partners purified
[1] = molecular target: T1, GST-β1 (glutathione S-transferase fused …); test: pull-down; Factor Xa cleaved MBP-LZTFL1 incubated with GST-fused β1 subunit of AP-1 held on Glutathione Sepharose 4B
[2] = molecular target: T2, GST-β2 (GST-fused β2 subunit of AP-2); test: pull-down; MBP-fused proteins held on amylose resin, purified GST-fused proteins added, overnight at 4°C; blots with anti-MBP and anti-GST
[3] = molecular target: T1, GST-β1 (glutathione S-transferase fused …); test: as above

binding result [1]	binding result [2]	binding result [3]	Binder
binds	–	–	LZTFL1 from purified MBP-LZTFL1 cleaved by Factor Xa (natural protein, human, UniProt Q9NQ48-1 1-299, looked up, human LZTFL1, wild type; also called Factor Xa cleaved MBP-LZTFL1; source: E. coli, purified as MBP fusion (amylose resin), cleaved with Factor Xa) MAELGLNEHHQNEVINYMRFARSKRGLRLKTVDSCFQDLKESRLVEDTFTIDEVSEVLNGLQAVVHSEVESELINTAYTNVLLLRQLFAQAEKWYLKLQTDISELENRELLEQVAEFEKAEITSSNKKPILDVTKPKLAPLNEGGTAELLNKEILRLQEENEKLKSRLKTIEIQATNALDEKSKLEKALQDLQLDQGNQKDFIKAQDLSNLENTVAALKSEFQKTLNDKTENQKSLEENLATAKHDLLRVQEQLHMAEKELEKKFQQTAAYRNMKEILTKKNDQIKDLRKRLAQYEPED
–	binds	binds	MBP-LZTFL1 (maltose-binding protein fused with human LZTFL1) (natural protein, UniProt Q9NQ48-1 1-299, looked up, human LZTFL1, wild type; cloned in pMAL-c2X; also called MBP-fused LZTFL1; wild-type LZTFL1; source: E. coli, purified (amylose resin)) MAELGLNEHHQNEVINYMRFARSKRGLRLKTVDSCFQDLKESRLVEDTFTIDEVSEVLNGLQAVVHSEVESELINTAYTNVLLLRQLFAQAEKWYLKLQTDISELENRELLEQVAEFEKAEITSSNKKPILDVTKPKLAPLNEGGTAELLNKEILRLQEENEKLKSRLKTIEIQATNALDEKSKLEKALQDLQLDQGNQKDFIKAQDLSNLENTVAALKSEFQKTLNDKTENQKSLEENLATAKHDLLRVQEQLHMAEKELEKKFQQTAAYRNMKEILTKKNDQIKDLRKRLAQYEPED
